“And” between values parts separate entries of the source, which are not always exact repeats. Equal values may be shown once.
Tests used:
[1] = target: 全长SARS-CoV-2 S蛋白 (GenBank ID: QHD43416.1)，展示于HIV假病毒 (SARS-CoV-2, UniProt P0DTC2 14-1273); test: cell-based or functional assay
SARS-CoV-2真病毒的S蛋白 = SARS-CoV-2真病毒的S蛋白 (SARS-CoV-2, UniProt P0DTC2 14-1273); test: cell-based or functional assay

B1: 单克隆抗体4B7 (抗SARS-CoV-2全人源单克隆抗体) (antibody, V domains shown)
VH: EVQLVESGGGLVQPGGSLRLSCAASGFPFSSYAMSWVRQAPGKGLEWVSAITGSGGSTYYADSVKGRFTISRDNSKNTLYLHMNSLRAEDTAVYYCAKDDYGDYVLGAFDIWGQGTTVTVSS
VL: QSALTQPASVSGSPGQSITISCTGTSSDVGTYKFVSWYQQHPGKAPKLMIYEGSKRPSGVSNRFSGSKSGNTASLTISGLQAEDEADYYCCSYAGSSTLVFGGGTKLTVL
[1]
  假病毒模型上EC50 (luciferase, ACE2-293T细胞): 0.052 ug/ml and 0.35 nM
SARS-CoV-2真病毒的S蛋白
  病毒感染的细胞模型上EC50 (Vero E6细胞, 结晶紫染色细胞活率): 0.38 ug/ml and 2.5 nM

Source: patent publication CN111732655A (INST MILITARY MEDICINE ACADEMY MILITARY SCIENCES PLA, dated 2020)
